Molecular target: fibrillin‐1 fragment start‐EGF4 (UniProt P35555 45-287)
Assay: SPR

Chain of fibrillin‐1 fragment start‐EGF4 (P35555 45-287): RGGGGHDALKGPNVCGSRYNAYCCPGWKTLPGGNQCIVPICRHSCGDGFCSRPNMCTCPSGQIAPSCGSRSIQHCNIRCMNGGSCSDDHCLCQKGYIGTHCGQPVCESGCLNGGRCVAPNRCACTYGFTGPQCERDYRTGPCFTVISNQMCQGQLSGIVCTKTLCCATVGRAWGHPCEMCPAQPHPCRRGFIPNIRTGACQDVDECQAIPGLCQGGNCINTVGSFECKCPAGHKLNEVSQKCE

B1: processed BMP‐10 CPLX (tag‐free, HEK293) (complex)
chain 1: SPIMNLEQSPLEEDMSLFGDVFSEQDGVDFNTLLQSMKDEFLKTLNLSDIPTQDSAKVDPPEYMLELYNKFATDRTSMPSANIIRSFKNEDLFSQPVSFNGLRKYPLLFNVSIPHHEEVIMAELRLYTLVQRDRMIYDGVDRKITIFEVLESKGDNEGERNMLVLVSGEIYGTNSEWETFDVTDAIRRWQKSGSSTHQLEVHIESKHDEAEDASSGRLEIDTSAQNKHNPLLIVFSDDQSSDKERKEELNEMISHEQLPELDNLGLDSFSSGPGEEALLQMRSNIIYDSTARIRR
chain 2: NAKGNYCKRTPLYIDFKEIGWDSWIIAPPGYEAYECRGVCNYPLAEHLTPTKHAIIQALVHLKNSQKASKACCVPTKLEPISILYLDKGVVTYKFKYEGMAVSECGCR
modifications: N‐glycosylation
- Kd: 14.4 nM
